How the values were obtained:
MS2 coat protein [1] = assay: apparent KD of MS2 coat protein, switch ON state; designed switch direction (-1 OFF switch, 1 ON switch): 1; higher = weaker reporter binding; conditions: FMN input: 0 or 200 uM; Eterna round: R93 (includes R88 designs)
Outline: (§1)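 Designed RNA switches were transcribed on-chip from Illumina sequencing clusters and titrated with SNAP-549-labelled MS2 coat protein in twofold steps from 0.7 or 1.5 nM up to 3 µM. Each step lasted 0.8–1.5 h at first and 10–20 min by the end, in 100 mM Tris-HCl pH 7.5, 80 mM KCl and 4 mM MgCl2, without or with constant ligand. Apparent KD is the median, for each design, of fits to normalised cluster binding curves.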

MS2 coat protein [2] = assay: apparent KD of MS2 coat protein, switch OFF state (with FMN for OFF switches, without FMN for ON switches); designed switch direction (-1 OFF switch, 1 ON switch): 1; higher = weaker reporter binding; conditions: FMN input: 0 or 200 uM; Eterna round: R93 (includes R88 designs)
Outline: as §1

Row | Sequence | apparent KD of MS2 coat protein (MS2 coat protein [1]) [nM] | apparent KD of MS2 coat protein (MS2 coat protein [2]) [nM]
1 | AACCAACAUGAGGAUCACCCAUGUCAACCCAAGCGAGGAUAUCGGAGAAUAACAAUGGGACGAGAAGGCGCGACCU [ss1-2] | 34.4 | 36.9
2 | AACCAACAUGAGGAUCACCCAUGUCUACAGGAUUAAGGAUAUGGGCAGGGCUUCCCUGCACUAGAAGGUGAUCCAA [Enonenen] | 409 | 52.3
3 | AACUAACAUGAGGAUCACCCAUGUAUUCAAACAUGAGGAUAUAUAACACAUCAUCAACAGAUAGAAGGCAUAAAUA [JR_SS001_Sub1204] | 93 | 82.3
4 | AAGAAACAUGAGGAUCACCCAUGUAAAUUCAAGAGAGGAUAUCGUACAUGGAAGAUUCAACGAGAAGGCUCUAGAA [Pariah 3 (MS2 Riboswitches - Same State 1)] | 19.3 | 83
5 | AAGAAACAUGAGGAUCACCCAUGUAAGAUAAACACAGGAUAUGCGAAAAUAAAUAAAUAAGCAGAAGGGUGAAAAG [Mat - Same State 1 - Tesla mod - 75] | 19.9 | 32.4
6 | AAGAAACAUGAGGAUCACCCAUGUAAGAUAAACACAGGAUAUGCGAAUAAAAUAAAUAAAGCAGAAGGGUGAAGAA [Mat - Same State 1 - Tesla mod - D150] | 17.1 | 34.3
7 | AAGAAACAUGAGGAUCACCCAUGUACCCAAAAGGCAGGAUAUGGGAAAGAAAGAAAGAAACCAGAAGGGCCAUGAA [Sogdianus] | 30.1 | 57.1
8 | AAGAAACAUGAGGAUCACCCAUGUGAGAUAAACACAGGAUAUGCGAAAAUAAAUAAAUAAGCAGAAGGGUGAAGAA [Mat - Same State 1 - Tesla mod - 69] | 30.2 | 82.6
9 | AAGAACGUGGUGUAGGAUAUACUAAUAGUCACAUGAGGAUCACCCAUGUUCAUAUAUAUGAACGAGUAGAAGGACGACGAAAAAA [Mat - Same state - Malcolm Mod - D107] | 137 | 147
10 | AAGACACAUGAGGAUCACCCAUGUCAAGAGAGACGAGGAUAUCUGAAUUAAUUAAAUUAAGGAGAAGGCGUGAAAA [Same State of Confusion2] | 23.1 | 58.1
11 | AAGAGACAUGAGGAUCACCCAUGUAGGAUUAUGGGAGGAUAUACAAAGACGAGAGUCAGAGUAGAAGGCCUAGGAC [salish99-ss1-132(!)] | 19.3 | 53.8
12 | AAGGCACAUGAGGAUCACCCAUGUUAGCCGCGACGAGGAUAUGGGAACGCGUCAGCGGAAUUAGAAGGUGUGGUGA [Qusoquan] | 35.6 | 37.8
13 | AAGUCACAUGAGGAUCACCCAUGUCGUAAACGAUGAGGAUAUAGGAAGAAAAAAAAAAAACUAGAAGGUAUUACAA [SameState1-02] | 32.5 | 28.6
14 | AAUAAACAUGAGGAUCACCCAUGUACCUACCACUAAGGAUAUGGGCGAAUAACAGCUCGGCCAGAAGGUAGAGGUG [Onususer] | 116 | 82.9
15 | AAUAACUAUAGCAAGGAUAUCCGAAACAAGACAUGAGGAUCACCCAUGUAAUAAGACAAAAUAUAGGAGAAGGUGCAGGGUGAAA [JR_SS002_Sub010] | 75.3 | 116
16 | AAUAAGACUAGCAAGGAUAUCUAAAACGAAACAUGAGGAUCACCCAUGUAACGAGUACACGUAUCAGAGAAGGUGCAGGGUGAAA [JR_SS002_Sub305] | 36.1 | 16.2
17 | AAUACACAUAGUCAGGAUAUCAAAAAUAAGACAUGAGGAUCACCCAUGUAAUAAGUAAAAGUAAAUGAGAAGGGACAGGGUGACC [JR_SS002_Sub403] | 1560 | 199
18 | AAUACCACUAGCAAGGAUAUCUAAAACGAAACAUGAGGAUCACCCAUGUGACGACCACACGUAUCAGAGAAGGUGCAGGGUGAAU [JR_SS002_Sub306] | 24.2 | 24
19 | AAUAGACAUGAGGAUCACCCAUGUAGAAUUAUGGGAGGAUAUACAAAGACGAGAGUCAGAGUAGAAGGCCUAGGAG [salish99-ss1-150] | 22.1 | 48.3
20 | AAUAUACAUGAGGAUCACCCAUGUAUUAAUAGCUGAGGAUAUACGGGUGAAAAUAGCAUAGUAGAAGGCGGGUGUA [SameState1 Malc#10] | 107 | 144
21 | AAUAUACAUGAGGAUCACCCAUGUUAGGUGGGACUAGGAUAUCAAAAUAAAUAAAGAACAUGAGAAGGAGUAUAAA [JR_SS001_Sub017] | 75.3 | 178
22 | AAUAUAUUAAGUGAGGAUAUCGAGGAAAAAACAUGAGGAUCACCCAUGUGGGAAACAUGGUCGGGUGAGAAGGCACUUAAUAUAU [Samwise Clockwise 25 - Jieux - Same State 2] | 125 | 326

Row | Sequence | apparent KD of MS2 coat protein (MS2 coat protein [1]) [nM] | apparent KD of MS2 coat protein (MS2 coat protein [2]) [nM]
23 | AAUCCAAAUAGUCAGGAUAUCAAAAAUAAGACAUGAGGAUCACCCAUGUAAUAAGUAAAAGUAAAUGAGAAGGGACAGGGUGAAA [JR_SS002_Sub401] | 398 | 92.8
24 | ACAAACAAAAAAGAGGAUAUCCUAAACAAAACAUGAGGAUCACCCAUGUAAAAAAAAAUAAAAUGGGAGAAGGCUUACAACAAAC [SS2 M 23] | 68 | 51.7
25 | ACUAGGAAGAGAGAGGAUAUCCAAAGGAAAACAUGAGGAUCACCCAUGUAAAAGGUAGGAAAUUGGGAGAAGGCUCAAGAGAGAG [salish99-ss2-085] | 22.9 | 24.4
26 | ACUAUACAUGAGGAUCACCCAUGUUAGGUGGGACUAGGAUAUCAAAAGCCAGAGUAAGAAUGAGAAGGAGUAGAAA [JR_SS001_Sub301] | 32.8 | 34.8
27 | AGAAAACAUGAGGAUCACCCAUGUAGAAACAUGGGAGGAUAUACAAAGACGAAAGUCAAAGUAGAAGGCCUAAAAA [Mat - Same State 1 - Mod - D163] | 75.7 | 140
28 | AGAAAACAUGAGGAUCACCCAUGUAGAAAUAUGGGAGGAUAUACAAAGACGAAAGUCAAAGUAGAAGGCCUAAAAG [Mat - Same State 1 - Eli mod - 35] | 23.2 | 78.3
29 | AGAAAACAUGAGGAUCACCCAUGUAGAAAUAUGGGAGGAUAUACGAAGACGAAAGUCAAAGUAGAAGGCCUAAGAA [Mat - Same State 1 - Eli mod - D108] | 18.8 | 51.7
30 | AGAAAACAUGAGGAUCACCCAUGUGACAAUAUGGGAGGAUAUACCAAGACGAAAGUCGAAGUAGAAGGCCUAAAGA [Garnet 51] | 22.9 | 69.8
31 | AGAAAUAAAACGAAGGAUAUCCAAAAUAAAACAUGAGGAUCACCCAUGUAAAAGAAAAUAAAGUGGGAGAAGGUCGAAAAUAAGA [Designing denovo 15] | 12 | 54.4
32 | AGAAAUAAAAGACAGGAUAUCCAAAACUCAACAUGAGGAUCACCCAUGUAAAAGAAAAUAAAAUGGGAGAAGGGUCAAAAUAAGA [Jieux modified + C segment V2] | 15.3 | 33.8
33 | AGAAAUAAAAGACAGGAUAUCCACUCAAAAACAUGAGGAUCACCCAUGUAAAAGAAAAUAAAAUGGGAGAAGGGUCAAAAUAAGA [Jieux modified + C segment V7] | 15.5 | 48.6
34 | AGAAAUAAAAGAGAGGAUAUCCAAAAAGGGACAUGAGGAUCACCCAUGUAAAAGAAAAUAAAAUGGGAGAAGGCUCAAAAUAAAG [80%, More Helter Skelter 2] | 97.3 | 120
35 | AGAAAUAAAAGAGAGGAUAUCCAAAAGAAAACAUGAGGAUCACCCAUGUAAAACAAAACAAAAUGGGAGAAGGCUCAAAAUAAGA [Topaz 15] | 19.8 | 31.4
36 | AGAAAUAAAGCUGAGGAUAUGGGUAAAUACACAUGAGGAUCACCCAUGUAAAAGAAAAUAAAAAACCAGAAGGCAGCAAAUAAGA [Designing denovo 4] | 23.4 | 30.8
37 | AGAAAUAAAGGAGAGGAUAUCCAAAAGAAAACAUGAGGAUCACCCAUGUAAAAGAAAAUAAAGUGGGAGAAGGCUUCAAAUAAGA [Starry modified V5] | 18.7 | 45.2
38 | AGAAAUAAAGGAGAGGAUAUUCAAAAAGGGACAUGAGGAUCACCCAUGUAAAAGAAAAUAAAAUGGGAGAAGGCUCUAAAUAAAG [80%, More Helter Skelter 2] | 49.6 | 47.2
39 | AGAAGACAUGAGGAUCACCCAUGUGCACGUGGAGGAGGAUAUGCUAGUAGAAGAUAGAAUGCAGAAGGCCUAAGAA [Mat - Mod] | 51.9 | 38.5
40 | AGAAGACAUGAGGAUCACCCAUGUGGGAUUAUGGGAGGAUAUACAAAGACGAGAGUCAGAGUAGAAGGCCUAGGAU [salish99-ss1-113(!)] | 24.7 | 70.8
41 | AGAUCUAGAAGGUAGGAUAUGUGAAAAAAAACAUGAGGAUCACCCAUGUGAUGAAUAAAAAGAAAAUAGAAGGACCAUCUAGAUC [Cross swing 1] | 16 | 59
42 | AGCGAACAUGAGGAUCACCCAUGUGAAAAACAUAGAGGAUAUGUCGCAUGCGUGUAAAAGACAGAAGGCUAUCGCG [Mat - Mod of Nando] | 24 | 52.1
43 | AGGAAACAUGAGGAUCACCCAUGUAAAAAAUAUGGAGGAUAUGCUAGAAGAAACAAAAUAGCAGAAGGCCAAAAAA [75%, Ex sub1, 23] | 13.7 | 24.7
